The source of these data is publication PMC4570534.

The assay has as its target WT‐EsxB (Bacillus anthracis). As to the kind of experiment: SEC. For orientation: Size exclusion chromatography separates by hydrodynamic size, large species first.

Consider WT‐EsxB (natural protein), for which the stoichiometry N is 4.

The term stoichiometry N denotes the number of molecules, sites or subunits per partner or assembly.
